Test results reported in patent US20080027006A1.
Like-named read-outs stand apart in the source and are kept apart here.

B1: HR-N2 (916-973) (peptide)
peptide: IQESLTTTSTALGKLQDVVNQNAQALNTLVKQLSSNFGAISSVLNDILSRLDKVEAEV
modifications: not checked

Key:
[1] = target: HR-C1 (1147-1185) (SARS coronavirus (Urbani strain))
[2] = target: HR-C1 (1147-1185) (SARS coronavirus (Urbani strain)); test: CD thermal denaturation of the mixture at 222 nm
[3] = target: HR-C1 (1147-1185) (SARS coronavirus (Urbani strain)); test: SEC of equimolar mixture (Superdex 75)
[4] = target: HR-C2 (1165-1185) (SARS coronavirus (Urbani strain))
[5] = target: HR-C3 (1158-1185) (SARS coronavirus (Urbani strain))
[6] = target: HR-C4 (1151-1185) (SARS coronavirus (Urbani strain))
[7] = target: HR-C1 (1147-1185) (SARS coronavirus (Urbani strain)); test: CD at 222 nm of the peptide mixture, 22 °C, 0.05 M K2PO4 buffer

Binder | T1/2 of the complex [1] | [θ]222 observed (degrees·cm^2·dmol^-1) [1] | also measured
B1 | 74 °C | -17900 | rise of T1/2 relative to HR-N2 alone [2]: 6 °C
FNGIGVTQNVLYENQKQIANQFNKAISQIQESLTT (modifications not checked) [HR-N6 (888-922)] |  | -8600 | 
QNVLYENQKQIANQFNKAISQIQESLTTTSTALGK (modifications not checked) [HR-N7 (895-929)] |  | -7400 | 
QKQIANQFNKAISQIQESLTTTSTALGKLQDVVNQ (modifications not checked) [HR-N8 (902-936)] |  | -7900 | 
FNKAISQIQESLTTTSTALGKLQDVVNQNAQALNT (modifications not checked) [HR-N9 (909-943)] | 36 °C | -10800 | higher molecular weight complex, percent of observed SEC area units [3]: 30%; rise of T1/2 relative to HR-C1 alone [2]: 3 °C
IQESLTTTSTALGKLQDVVNQNAQALNTLVKQLSS (modifications not checked) [HR-N10 (916-950)] | 57 °C | -17700 | [θ]222 observed (degrees·cm^2·dmol^-1) [4]: -3800; [θ]222 observed (degrees·cm^2·dmol^-1) [5]: -4900; T1/2 of the complex [6]: 56 °C; [θ]222 observed (degrees·cm^2·dmol^-1) [6]: -17900; increase of T1/2 from HR-C1 [2]: 24 °C
TSTALGKLQDVVNQNAQALNTLVKQLSSNFGAISS (modifications not checked) [HR-N11 (923-957)] |  | -8000 | 
MQMAYRFNGIGVTQNVLYENQKQIANQFNKAISQI (modifications not checked) [HR-N5 (882-916)] |  |  | [θ]222 observed (degrees·cm^2·dmol^-1) [7]: -8500
